Assay results: patent US20210380680A1 (ZLLP, published 2021)
Read-outs that look alike come from different tables or passages of the source.

How the values were obtained:
[1] = biological target: T1, human Claudin 18.2 (CLDN18.2) (human, UniProt P56856-2 1-261); assay: cell-based or functional assay
[2] = biological target: T1, human Claudin 18.2 (CLDN18.2); assay: cell-based or functional assay; remark: listed apart in the source
[3] = biological target: T1, human Claudin 18.2 (CLDN18.2); assay: cell-based or functional assay; remark: listed apart in the source
[4] = biological target: T1, human Claudin 18.2 (CLDN18.2); assay: cell-based or functional assay; remark: listed apart in the source
[5] = biological target: T1, human Claudin 18.2 (CLDN18.2); assay: FACS on CHO-CLDN18.2 cells
[6] = biological target: T1, human Claudin 18.2 (CLDN18.2); assay: FACS on CHO-CLDN18.2 cells; remark: listed apart in the source
[7] = biological target: T1, human Claudin 18.2 (CLDN18.2); assay: FACS on CHO-CLDN18.2 cells; remark: listed apart in the source
[8] = biological target: T1, human Claudin 18.2 (CLDN18.2); assay: FACS Exp. 1, MFI ratio CHO-18.2 over CHO-18.1
[9] = biological target: T1, human Claudin 18.2 (CLDN18.2); assay: FACS Exp. 2, MFI ratio CHO-18.2 over CHO-18.1
[10] = biological target: CLDN18.2 endogenously expressed on SNU620 gastric cancer cells (UniProt P56856); assay: FACS Exp. 3, SNU620 cells
[11] = biological target: T1, human Claudin 18.2 (CLDN18.2); assay: cell-based or functional assay; remark: listed apart in the source
[12] = biological target: T2, CLDN18.2 endogenously expressed on SNU620 gastric cancer cells (UniProt P56856-2 1-261, limits assumed); assay: FACS Exp. 3, SNU620 cells
T2 construct: whole, on cells; also called SU620

Binder	ADCC EC50, NCI-N87-18.2 cells, FcR-TANK effectors [1]	% specific cytotoxicity @ 6.67 nM, NUGC4-CLDN18.2, PBMC [2]	ADCC EC50, NUGC4-CLDN18.2 cells, PBMC [2]	% ADCC @ 6.67 nM, NCI-N87-CLDN18.2, FcR-TANK [3]	ADCC EC50, NCI-N87-CLDN18.2, FcR-TANK [3]	CDC EC50, human serum, CHO-CLDN18.2 [4]	MFI_CHO-18.2/CHO-18.1 (@30 ug/ml) [8]	% internalization, NCI-N87-CLDN18.2, 37 C 2 h [11]	% internalization, NUGC4-CLDN18.2, 37 C 2 h [11]	further results
364D1A7-VL-S32V (antibody, human IgG1, kappa, V domains shown, chimeric human IgG1, PTM site removed; also called 364D1A7-VL-32V) VH: DVQLVESGGGLVQPGGSRKLSCAASGFTFSSFGMHWVRQAPEKGLEWVAYISSGSGSIYYADTVKGRFTLSRDNPKNTLFLQMTSLRSEDTAIYYCATSYYYGNALEYWGQGTSVTVSS VL: DVVLTQSPSSLTVTEGEKVSMSCKSSQSLFNVGNQKNYLTWYQQKPGQTPTLLIYWASTRKSGVPDRFTGSGSGTDFTLTINTVQAEDLAVYYCQNVYSYPLTFGAGTKLDLKR	12 nM	26.6%	6.36 nM	15.3%	0.34 nM	1.49 nM	–	–	–	EC50 [5]: 3.87 nM
364D1A7-VL-S32L (antibody, human IgG1, kappa, V domains shown) VH: DVQLVESGGGLVQPGGSRKLSCAASGFTFSSFGMHWVRQAPEKGLEWVAYISSGSGSIYYADTVKGRFTLSRDNPKNTLFLQMTSLRSEDTAIYYCATSYYYGNALEYWGQGTSVTVSS VL: DVVLTQSPSSLTVTEGEKVSMSCKSSQSLFNLGNQKNYLTWYQQKPGQTPTLLIYWASTRKSGVPDRFTGSGSGTDFTLTINTVQAEDLAVYYCQNVYSYPLTFGAGTKLDLKR	9.56 nM	–	–	–	–	–	–	–	–	–
reference antibody 175D10 (xi175D10) (antibody, human IgG1, kappa, V domains shown, Fc variant D356/L358; also called chimeric 175D10) VH: QVQLQQPGAELVRPGASVKLSCKASGYTFTSYWINWVKQRPGQGLEWIGNIYPSDSYTNYNQKFKDKATLTVDKSSSTAYMQLSSPTSEDSAVYYCTRSWRGNSFDYWGQGTTLTVSS VL: DIVMTQSPSSLTVTAGEKVTMSCKSSQSLLNSGNQKNYLTWYQQKPGQPPKLLIYWASTRESGVPDRFTGSGSGTDFTLTISSVQAEDLAVYYCQNDYSYPFTFGSGTKLEIKR	96.4 nM	16.8%	9.21 nM	11.9%	–	2.26 nM	1030	–	–	EC50 [6]: 9.32 nM; EC50 [7]: 7.52 nM; EC50 [5]: 7.24 nM; MFI_CHO-18.2/CHO-18.1 (@30 ug/ml) [9]: 1390
357B8F8-VH-S61I-VL-S32I (antibody, human IgG1, kappa, V domains shown) VH: QVQLKESGPGLVAPSQSLSITCTVSGFSLTSYGVHWVRQPPGKGLEWLGVIWPGGNTNYNIALMSRLSISKDNSKSQVFLKMNSLQTDDTAMYYCARDRRLAMDYWGQGTSVTVSS VL: DIVMTQSPSSLTVTAGEKVTMTCKSSQSLLNIGNQKNYLTWYQQKPGQPPKLLIYWASTRESGVPDRFTGSGSGTDFTLTISILQAEDLAVYYCQNDYSYPFTFGSGTKLEIKR	159 nM	19.6%	4.87 nM	2.3%	1.81 nM	–	–	–	–	–
hz282-1 (antibody, V domains shown, humanized IgG; constant regions not specified; also called hz282-l) VH: QVQLQESGPGLVKPSETLSLTCTVSGFSLTSYNVYWIRQPPGKGLEWIGVIWNTGATRYNSALKSRVTISVDTSKNQFSLKLSSVTAADTAVYYCARDSAMPAIPFAYWGQGTLVTVSS VL: DIVMTQSPDSLAVSLGERATINCKSSQSLFGSVRQKNYLAWYQQKPGQPPKLLIYLASTRESGVPDRFSGSGSGTDFTLTISSLQAEDVAVYYCQQYYDIPWTFGGGTKVEIK	–	–	–	–	–	–	262	–	–	MFI SNU620 (@30 ug/ml) [10]: 69.6 MFI
hz282-15-V2 (antibody, V domains shown) VH: QVQLQESGPGLVKPSETLSLTCTVSGFSLTSYNVYWIRQPPGKGLEWIGVIWNTGATRYNSALKSRVTISKDTSKSQVSLKLSSVTAADTAVYYCARDSAMPAIPFAYWGQGTLVTVSS VL: DIQMTQSPSSLSASVGDRVTITCKSSQSLFGSVRQKNYLAWYQQKPGKSPKLLIYLASTRESGVPDRFSGSGSGTDFTLTISSLQPEDFAKYYCQQYYDIPWTFGGGTKVEIK	–	–	–	–	–	–	–	> 50%	> 80%	–
hz282-11-V2 (antibody, V domains shown) VH: QVQLQESGPGLVKPSETLSLTCTVSGFSLTSYNVYWIRQPPGKGLEWIGVIWNTGATRYNSALKSRVTISKDTSKSQVSLKLSSVTAADTAVYYCARDSAMPAIPFAYWGQGTLVTVSS VL: DIQMTQSPSSLSASVGDRVTITCKSSQSLFGSVRQKNYLAWYQQKPGKAPKLLIYLASTRESGVPSRFSGSGSGTDFTLTISSLQPEDFATYYCQQYYDIPWTFGGGTKVEIK	–	–	–	–	–	–	–	> 50%	> 80%	–
hz282-5 (antibody, V domains shown, humanized IgG; constant regions not specified) VH: QVQLQESGPGLVKPSETLSLTCTVSGFSLTSYNVYWIRQPPGKGLEWIGVIWNTGATRYNSALKSRVTISVDTSKNQFSLKLSSVTAADTAVYYCARDSAMPAIPFAYWGQGTLVTVSS VL: DIVMTQSPDSLAVSLGERATINCKSSQSLFGSVRQKNYLAWYQQKPGQSPKLLIYLASTRESGVPDRFSGSGSGTDFTLTISSLQAEDVAKYYCQQYYDIPWTFGGGTKVEIK	–	–	–	–	–	–	310	–	–	MFI SNU620 (@30 ug/ml) [10]: 135 MFI
413H9F8-VL-S32V (antibody, human IgG1, kappa, V domains shown, chimeric human IgG1, PTM site removed; also called 413H9F8-VL-32V; 413H9F8-VL-532V) VH: DVQLVESGGGSVQPGGSRRLSCAASGFTFSSFGMHWVRQAPEKGLEWVAYISSGSSPIYYVDKLKGRFTVSRDNPKNTLFLQMTSLRSEDTAMYYCARAGYAVRNALDYWGQGTSITVSS VL: DIVMTQSPSSLSVSVGEKVTLSCKSSQSLLNVGNQKNYLAWYQQKTGQPPKLLIYGASTRESGVPDRFIGSGSGTDFTLTISSVQAEDLAVYFCQNDLFYPLTFGAGTKLELKR	7.84 nM	31.4%	7.69 nM	13.9%	0.33 nM	0.76 nM	–	–	–	EC50 [6]: 1.84 nM; EC50 [7]: 2.14 nM
413H9F8-VL-S32V-V2-DL (antibody, V domains shown) VH: DVQLVESGGGSVQPGGSRRLSCAASGFTFSSFGMHWVRQAPEKGLEWVAYISSGSSPIYYVDKLKGRFTVSRDNPKNTLFLQMTSLRSEDTAMYYCARAGYAVRNALDYWGQGTSITVSS VL: DIVMTQSPSSLSVSVGEKVTLSCKSSQSLLNVGNQKNYLAWYQQKTGQPPKLLIYGASTRESGVPDRFIGSGSGTDFTLTISSVQAEDLAVYFCQNDLFYPLTFGAGTKLELK	–	–	–	–	–	–	–	< 30%	< 15%	–
413H9F8-VL-S32L (antibody, human IgG1, kappa, V domains shown) VH: DVQLVESGGGSVQPGGSRRLSCAASGFTFSSFGMHWVRQAPEKGLEWVAYISSGSSPIYYVDKLKGRFTVSRDNPKNTLFLQMTSLRSEDTAMYYCARAGYAVRNALDYWGQGTSITVSS VL: DIVMTQSPSSLSVSVGEKVTLSCKSSQSLLNLGNQKNYLAWYQQKTGQPPKLLIYGASTRESGVPDRFIGSGSGTDFTLTISSVQAEDLAVYFCQNDLFYPLTFGAGTKLELKR	8.56 nM	–	–	–	–	–	–	–	–	–
282A12F3 (T62A) (antibody, human IgG1, kappa, V domains shown, chimeric human IgG1, PTM site removed; also called 282A12F3-VH-NSA (T62A); 282A12 (T62A)) VH: QVQLKESGPVLVQPSQTLSLTCTVAGFSLTSYNVYWVRQPPGKGLEWMGVIWNTGATRYNSALKSRLSISKDTSKSQVFLKMNSLQTEDTATYYCARDSAMPAIPFAYWGQGTLVTVSS VL: DIVMTQSPSSLAVSAGETVTINCKSSQSLFGSVRQKNYLAWYQQKPGQSPKLLIYLASTRESGVPDRFIGSGSGTDFTLTISSVQAEDLAKYYCQQYYDIPWTFGGGTKLELKR	73.2 nM	21%	–	14.6%	2.25 nM	10.4 nM	811	–	–	ADCC EC50, NUGC4-CLDN18.2 cells, PBMC (1 donor) [2]: 9.52 nM; MFI_SNU620 (@30 ug/ml) [12]: 1520 MFI; EC50 [6]: 4.45 nM; MFI_CHO-18.2/CHO-18.1 (@30 ug/ml) [9]: 768
Xi282A12F3(T62A)-V2-DL (antibody, V domains shown) VH: QVQLKESGPVLVQPSQTLSLTCTVAGFSLTSYNVYWVRQPPGKGLEWMGVIWNTGATRYNSALKSRLSISKDTSKSQVFLKMNSLQTEDTATYYCARDSAMPAIPFAYWGQGTLVTVSS VL: DIVMTQSPSSLAVSAGETVTINCKSSQSLFGSVRQKNYLAWYQQKPGQSPKLLIYLASTRESGVPDRFIGSGSGTDFTLTISSVQAEDLAKYYCQQYYDIPWTFGGGTKLELK	–	–	–	–	–	–	–	> 50%	> 80%	–
